The target in the assay is a seven trans-membrane receptor. Put plainly: cell-based or functional assay.

Where no end group is shown, it is not given here.

For the molecule AAHLPAEFTPAVHASLDKF-NH2 [2.022 kDa peptide, amino acids 110-128 of α-chain hemoglobin (SEQ ID No: 9)], the half-saturation effect of the peptide on the decrease in cell area of A7R5 cells with 5 nM bradykinin amounted to 9.35 µM and the increase of rat uterine contraction in the presence of oxytocin (isometric tissue bath, 100 µM peptide) turned out to be 30%.

Values taken from patent US20100080803A1.
